Laboratory results from IntAct's records for PubMed 24351927.

Key:
[1] = target: 1433z_human YWHAZ (UniProt P63104)
[2] = target: 1433g_rat Ywhag (UniProt P61983)
[3] = target: 1433t_human YWHAQ (UniProt P27348)
[4] = target: 1433g_rat Ywhag (UniProt P61983); remark: listed apart in the source

Sequence of UniProt P61983 (P61983 whole entry): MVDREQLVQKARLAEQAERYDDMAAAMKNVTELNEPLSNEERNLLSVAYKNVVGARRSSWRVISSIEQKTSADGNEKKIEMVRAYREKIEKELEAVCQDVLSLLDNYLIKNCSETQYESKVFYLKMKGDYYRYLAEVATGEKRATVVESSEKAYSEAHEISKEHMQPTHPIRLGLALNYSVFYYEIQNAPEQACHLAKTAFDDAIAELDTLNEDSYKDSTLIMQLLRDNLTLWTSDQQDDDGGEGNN
Sequence of UniProt P63104 (P63104 whole entry): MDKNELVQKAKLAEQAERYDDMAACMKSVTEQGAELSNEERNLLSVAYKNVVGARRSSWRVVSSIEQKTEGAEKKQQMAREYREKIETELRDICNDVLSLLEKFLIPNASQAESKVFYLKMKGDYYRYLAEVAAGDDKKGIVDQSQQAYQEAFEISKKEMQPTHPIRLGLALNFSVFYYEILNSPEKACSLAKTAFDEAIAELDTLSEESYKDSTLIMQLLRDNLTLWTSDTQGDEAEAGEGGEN
Sequence of UniProt P27348 (P27348 whole entry): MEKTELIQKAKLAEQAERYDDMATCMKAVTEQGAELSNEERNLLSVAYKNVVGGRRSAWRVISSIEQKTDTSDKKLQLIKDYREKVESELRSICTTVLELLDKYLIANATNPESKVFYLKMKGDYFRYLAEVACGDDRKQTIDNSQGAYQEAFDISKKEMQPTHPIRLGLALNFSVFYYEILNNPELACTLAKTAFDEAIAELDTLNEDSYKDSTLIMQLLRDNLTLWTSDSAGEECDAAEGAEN

Substance | effect of a mutation on the interaction [1] | effect of a mutation on the interaction [2] | effect of a mutation on the interaction [3] | effect of a mutation on the interaction [4]
Leucine-rich repeat serine/threonine-protein kinase 2 (Homo sapiens), Q5S007 R1441G | disrupting interaction | disrupting interaction | disrupting interaction | 
Leucine-rich repeat serine/threonine-protein kinase 2 (Homo sapiens), Q5S007 S1443A;S1444A |  |  |  | disrupting interaction
Leucine-rich repeat serine/threonine-protein kinase 2 (Homo sapiens), Q5S007 S1444A | disrupting interaction |  | disrupting interaction | disrupting interaction
